Data on two molecules can be found in US20250025567A1 (Astellas, published 2025).

The target in the assay is T1, human CLDN6 (Claudin 6) (human, UniProt P56747 1-220).
T1 construct: whole, on cells; Target presented on NUGC-3 cells that express CLDN6; also called hCLDN6
T1 sequence (looked up): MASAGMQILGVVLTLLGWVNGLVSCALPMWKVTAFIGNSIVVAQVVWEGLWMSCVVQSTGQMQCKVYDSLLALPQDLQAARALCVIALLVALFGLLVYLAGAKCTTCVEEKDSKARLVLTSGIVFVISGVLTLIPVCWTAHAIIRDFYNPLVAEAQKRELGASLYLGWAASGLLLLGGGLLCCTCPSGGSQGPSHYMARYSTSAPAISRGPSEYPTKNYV
Put plainly: flow cytometry on NUGC-3 cells expressing CLDN6, antibody 1 ng/mL to 25 µg/mL, PE anti-human IgG detection, gMFI. The method, then:
The cells of human gastric cancer cell line NUGC-3 (JCRB cell bank) expressing CLDN6 were suspended with PBS (Wako, #045-29795) containing 5% FBS so as to have a concentration of 1×10⁶ cells/mL. The suspension was seeded (added) in the wells of a 96-well V-bottom microplate at a rate of 100 μL/well. After centrifugation, the supernatant was removed. AbM: antibody comprising a heavy chain, aCLDN6-VH—CH₁—CH₂—CH₃ and a light chain, aCLDN6-VL-CL, disclosed in International Publication No. WO2022/058298. Ab0, Ab1 and Ab2 were suspended with 5% FBS-containing PBS such that the concentrations fall in the range of 1 ng/mL to 25 μg/mL (12 dilution series were prepared by serial dilution at a 2.5-fold dilution rate from 25 μg/mL to 1 ng/mL). The suspensions were added at a rate of 100 μL/well and allowed to stand still at 4° C. for one hour. […] A histogram of PE (phycoerythrin) fluorescence intensity of viable cell fractions was prepared and geometric mean fluorescence intensity (gMFI) was calculated. gMFI values were plotted to make a graph by GraphPad Prism (company: GraphPad Software). […]

Numbering of substitutions follows the chain as printed.

B1: humanized anti-CLDN6 antibody Ab1 (antibody, human IgG1, kappa, V domains shown)
VH: QVQLVESGGGVVQPGGSLRLSCKASGYSFTGYTMNWVRQAPGKGLEWVGLINPYNGGTIYNQKFKGRFTLSVDKSKSTAYLQMNSLRAEDTAVYYCARDYGFVLDYWGRGTLVTVSS
VL: DIQLTQSPSSLSASVGDRVTITCSASSSVSYLHWFQQKPGKAPKLLVYSTSNLPSGVPSRFSGSGSGTDYTLTISSLQPEDFATYYCQQRSIYPPWTFGQGTKLEIKR
notes: Humanized from mouse anti-CLDN6 antibody GT512muMAB 64A or 61D (WO 2011/057788), expressed in ExpiCHO-S cells; Tested as the naked antibody
As to B1, the binding result is recorded as “binds”.

B2: humanized anti-CLDN6 antibody Ab2 (antibody, human IgG1, kappa, V domains shown)
VH: B1 VH with F102Y
VL: B1 VL
notes: Tested as the naked antibody
B2: the binding result is “binds”.
